# Measured values published in the supplement of paper PMC11502859.
# System: HEK293T
# Assay: median enrichment of reporter reads in eGFP-reduced (low/intermediate) vs eGFP-high sorted cells (eGFP-extension fusion abundance) (ratio); higher = stronger loss of eGFP-fusion protein abundance (more destabilising extension)
# 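Note: lentiviral eGFP-IRES-mCherry reporter pool sorted by FACS 96 h post-transduction, gated on mCherry-high cells, Illumina read counts normalized per million, median across four biological replicates.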
row,Substance,median enrichment
1,RGPELARPRTPNTIFAIQPQAMGTAFLPRGPGRPQRLLQARTLVHYTPCLGAEILQQKDAIFFVSFFSIFFSKESIFQYVECV [NFYC],3.94
2,RGPPGLWGERM [CHRNB4],1.36
3,RGPPLAKACGRRWRPSLGRFQGASGKPDGCWWPFPRGLVSGPAQSLLRGRGWRLGSPACLAPPSERAALLSY [ARL6IP4],10.9
4,RGPSETVYALTST [KDELR3],1.55
5,RGQAAPVLGEGG [DEPDC5],3.76
6,RGQWLRGYVVQMLLLP [FILIP1],8.14
7,RGRGCPPRPLTPPAAVAAILPLAWGLPSPSQSISPPPSCSGWMWACR [KMT2B],4.49
8,RGRLNPPNINSHPSLHSCLPLFTFILRVQKFQVSFELYFVCQFHAYFSFIRES [CNTD1],5.36
9,RGRTSALSDRTLRAMLPCHP [MRGPRX3],6.81
10,RGSGQECHSQCPDPEIGPIPCLQPCLEAIQ [SLC22A14],2.88
11,RGSRRKQDTRWQA [PHGR1],3.92
12,RGTAVPACSPHLGRGSLAAFSLRSRST [AGAP1],0.942
13,RGTLRSPKTSSCWGPHEGTSTLWGVARKRQALQLGDPIWKRDSDLPTSSSSFSTKAPVDSREVVKIFFSPIFLPASGDTAAVT [PGPEP1],2.83
14,RGWDPLLKLVASAGLGAAPQRLQLIC [FES],32.6
15,RHRGKRRKSC [CLDN1],0.381
16,RHRRTPGDFLYICRLRLFVTSKWDIV [TAF4],12
17,RHSELLAVEEHHAYL [YTHDC2],0.354
18,RHSPLLVPH [TP53],0.971
19,RHSTRPPGLLGPPTPTALTAFPIAPGSSPPLGGTVKGSSLTRRLLLPLGSQLPPQESLLGRTLRTPSLHPVVL [KLC4],9.71
20,RHVIP [NPFF],0.57

row,Substance,median enrichment
1,RICKRRRHDVLCLH [MED12L],13.4
2,RIFCLVASQLGVL [GXYLT2],6.32
3,RIFTHIYLVSIG [FAM129C],28.5
4,RILDQ [SH3KBP1],1.07
5,RILPNALSENAELPFLFASFIFNIHNVVCLKVGFEVCAAYSFHLSPRFPSL [RRAGA],15.7
6,RILSLIPATPLLISGGRTVSELFVSIGHLSLVVKDWLMITMHRKTFRRKGECFVDHFGFLFCVWQF [EEF1A1],5.71
7,RIQPKCQVRSEGIFH [ABCC4],1.49
8,RKCQEWKIFLILVQHEVVFRSLLSLIAILRFVGFYERLLLSGLKSFLNVCFLRSVIQLCEYFVTDLFQWLLV [HINT3],11.3
9,RKDNSWKPQQFSIQGIYLRQIEYIL [ARL6],6.56
10,RKEKQLLPLSWDRGVGKSAGPHGAWGSQTEAPQNFLQCLRDAWMWPLPLLLTLKDSQTH [LY9],4.97
11,RKFLLNISVGSCYQNFGYDFLGSVYFGCILNYGNGIYLLLTVNLFF [CCDC181],5.89
12,RKGGSYSQAAM [HLA-G],0.441
13,RKINYTFYSPPEDHCPKAGSICSNNAAFTSSVHLCS [OR4M1],10.5
14,RKLLP [NOX4],0.64
15,RKPLNVRNVGRPFNIITNFMDIIDFIFVRTLMNVKDVGNALPVVETLEYIREFILVRNHINVKNVGKPLVIVQTC [ZNF780B],7.09
16,RKSNASRLSEA [VHLL],0.269
17,RKTWPENPQVLQRKTELGKGESWKDGAD [ABHD15],1.61
18,RKWNS [GCSH],0.655
19,RLAACLRNPAFFRR [MAPK10],12.2
20,RLEPV [TMEM87B],0.479

row,Substance,median enrichment
1,RLHRNCW [OR2Z1],3.02
2,RLHTCMLSPRGNGLYIAHFTLFRRHFIPALVLLEGLSRQSSSCSASVCDSPPSTPMALSLGDSSSPRKEGGVAEDLQPWPRGA [PRKAB1],7.16
3,RLLTHRHNLGH [MMP19],8.57
4,RLMW [KRTAP13-3],3.36
5,RLNICSVLKLMCFVGV [FBXL4],10.3
6,RLPAAQKNFALSFPVLFHTQKDPRKPVFNM [NR3C2],3.55
7,RLQSVVLVPLSQCRLVFLHILSMA [CDC16],7.48
8,RLSTGPLHTISLIYVPSTLPQISGSGPGTWEGTGVRGCMGALAAPGSVVGRKLWKL [LRRC73],6.15
9,RLVIFFQRVMQSGYKRIFCLPYKGILPAAKFKQ [ARMC10],14.7
10,RLWSRHPAEWGPRGCQLGALPLAATLWSGRVLHHQEDPILSSVSCPSCCGMLSTEPTAHLPLHLPESVSICNKRQPRLPRAVS [INAFM1],3.36
11,RLYRLRR [ST3GAL6],10.7
12,RMKSTASE [SERPINI2],0.64
13,RMLEAFIHL [ZNF248],1.59
14,RMNTCQE [OR52N4],0.48
15,RMSSFIRIWALSSFFSTHFPLPGPPLIQMPPSDSSWKPFLQLGQYDF [MSANTD2],33.9
16,RNCMKKIKSSKMALVTIKKL [CXorf41],2.73
17,RNEYMTGNNGDCL [CTPS2],0.464
18,RNHKEPSVPVHEISLLLENRNIDYQITMQLKPYCFFEQLFIPVIKTDCAEYSKRSEIGVYNYIFSDAIY [RPE],8.87
